Results as given in article PMC6813122, “Characterization of a highly stable α-galactosidase from thermophilic Rasamsonia emersonii heterologously expressed in a modified Pichia pastoris expression system” (Microbial Cell Factories, 2019).
Values belong to the molecule of their own block, whether it stands above or below them.

How the values were obtained:
[1] = biological target: ReGal2, GH27 α-galactosidase from Rasamsonia emersonii (Rasamsonia emersonii); assay: SEC; gel filtration of purified ReGal2, Superdex 200 Increase 10/300 GL, 10 mM Tris-HCl pH 8.0 plus 100 mM NaCl, calibrated with molecular weight standards; self-association, oligomeric state of the native enzyme
purified protein = substrate: O=[N+]([O-])c1ccc(O[C@H]2O[C@H](CO)[C@H](O)[C@H](O)[C@H]2O)cc1; assay: purified protein; details: 80 °C, 20 mM HAc-NaAc buffer pH 4.8 (general assay buffer), 0.25-2.0 mM pNPGal

stoichiometry N [1]: 6
Molecule: ReGal2, GH27 α-galactosidase from Rasamsonia emersonii (enzyme)

B1: ReGal2 (Rasamsonia emersonii CBS 393.64) (protein)
chain: LDNGLAITPQMGWNTWNSFGCSLNETVILDAAEKLVSLGFKDLGYEYVVLDDCWSAGRNASGYLVPDPAKFPNGIDGLAEKIHALGLKIGIYSSAGTMTCARYAGSLGYEEKDAALWASWGIDYLKYDNCYNQGQEGTPKLSYDRYNAMGQALNKTGRPILYSLCNWGVDGPWNFASTIANSWRTSGDLLNTWDRDDANCPCSELEGLDCKTPGYKCSILNVINKAVYYPSKAFPGAWNDLDMLQVGNGGLTDDEAVAHMSLWAAFKSPLLMTNVLSNIDPPTLSILQNPAVLAVSQDPVGSSVNRIWRYYVDDVDANGYGEIQLFSGGLAGGDQLVLLLNAGSKDRTMNATLEDIFWEDGPGGTASQVQQSWDVYDLWANRMSNETAAAIINAANSTGSAAPAAPINMTALGGAKHVYSQVPPSDSKALMGTKVGSVQPSGTVKAFVKAHGVAMLRLRQQSQKKDEL
Km (purified protein): 190 ± 40 µM | kcat (purified protein): 623 s⁻¹ | kcat/Km (purified protein): 3.28e+06 M⁻¹ s⁻¹
